The results in this text go back to paper PMC4700190.

The target of experiment [1] is CynD I60C (Bacillus pumilus). Briefly: SEC; Superdex 200 10/300 GL, 0.1 M MOPS pH 7.7, 0.5 ml/min; His-tag purified protein; column calibrated with a marker kit, and with wild-type B. pumilus CynD (18-mer) and P. stutzeri CynD (14-mer).
In experiment [2] the target is CynD T66C (Bacillus pumilus). Described as above.
In experiment [3] the target is CynD Y233C (Bacillus pumilus). The description is as above.
The target of experiment [4] is CynD I224C (Bacillus pumilus). The experiment is described as above.
Experiment [5] has as its target CynD F69C (Bacillus pumilus). The experiment is described as above.
For experiment [6], the target named is CynD H71C (Bacillus pumilus). The experiment is described as above.
The target in experiment [7] is CynD F59C (Bacillus pumilus). Described as above.
Experiment [8] addresses CynD P63C (Bacillus pumilus). The description is as above.
For experiment [9], the target named is CynD E72C (Bacillus pumilus). Described as above.
The target in experiment [10] is CynD E64C (Bacillus pumilus). The experiment is described as above.
Experiment [11] concerns the target CynD R67C (Bacillus pumilus).
The target of experiment [12] is CynD F234C (Bacillus pumilus). Description: SEC; Superdex 200 10/300 GL, 0.1 M MOPS pH 7.7, 0.5 ml/min; His-tag purified protein; column calibrated with a marker kit, and with wild-type B. pumilus CynD (18-mer) and P. stutzeri CynD (14-mer).
Experiment [13] deals with CynD Q230C (Bacillus pumilus). Described as above.
Experiment [14] deals with CynD L226C (Bacillus pumilus). The experiment is described as above.
Experiment [15] deals with CynD Y70C (Bacillus pumilus). The experiment is described as above.
The target of experiment [16] is CynD T227C (Bacillus pumilus). The experiment is described as above.
Experiment [17] deals with CynD D232C (Bacillus pumilus). The experiment is described as above.
The target of experiment [18] is CynD R231C (Bacillus pumilus). The description is as above.
Experiment [19] deals with CynD E235C (Bacillus pumilus). Described as above.
The target of experiment [20] is CynD E229C (Bacillus pumilus). The experiment is described as above.
Experiment [21] addresses cyanide dihydratase from Bacillus pumilus (CynD), wild type (Bacillus pumilus). The description is as above.
Experiment [22] has as its target CynD C225A (Bacillus pumilus). The description is as above.
Experiment [23] concerns the target CynD E222C (Bacillus pumilus). The experiment is described as above.
For experiment [24], the target named is CynD G61C (Bacillus pumilus). Described as above.
The target of experiment [25] is CynD from Pseudomonas stutzeri (Pseudomonas stutzeri). The description is as above.
Experiment [26] has as its target CynD W56C (Bacillus pumilus). The description is as above.
The target of experiment [27] is CynD M223C (Bacillus pumilus). The experiment is described as above.
For experiment [28], the target named is CynD Y65C (Bacillus pumilus). The description is as above.
For experiment [29], the target named is CynD H62C (Bacillus pumilus). Described as above.
The target of experiment [30] is CynD F57C (Bacillus pumilus). The description is as above.
Experiment [31] addresses CynD A58C (Bacillus pumilus). The experiment is described as above.
Experiment [32] deals with CynD P55C (Bacillus pumilus). The description is as above.
For experiment [33], the target named is CynD K68C (Bacillus pumilus). Described as above.

Regarding CynD I60C (enzyme), the stoichiometry N in [1] was 18 subunits. Turning to CynD T66C (enzyme), in experiment [2], the stoichiometry N came to 16 subunits.

For CynD Y233C (enzyme), the stoichiometry N in experiment [3] stood at 16 subunits. Turning to CynD I224C (enzyme), in [4], the stoichiometry N was 18 subunits. CynD F69C (enzyme): in [5], the stoichiometry N stood at 16 subunits. In experiment [6], CynD H71C (enzyme) yielded a stoichiometry N of 16 subunits. In experiment [7], CynD F59C (enzyme) showed a stoichiometry N of 18 subunits. CynD P63C (enzyme) registered a stoichiometry N in experiment [8] of 18 subunits. Take CynD E72C (enzyme): the stoichiometry N in experiment [9] was determined as 18 subunits. In the case of CynD E64C (enzyme), the stoichiometry N in [10] worked out at 16 subunits. On to CynD R67C (enzyme), for which, in [11], the activity of the purified protein relative to wild type, picric acid cyanide assay was < 10%. The substance CynD F234C (enzyme) gave a stoichiometry N in [12] of 16 subunits. As for CynD Q230C (enzyme), the stoichiometry N in experiment [13] stood at 18 subunits. As for CynD L226C (enzyme), in experiment [14], the stoichiometry N stood at 18 subunits. In the case of CynD Y70C (enzyme), the stoichiometry N in [15] amounted to 16 subunits. On to CynD T227C (enzyme), for which, in experiment [16], the stoichiometry N amounted to 18 subunits.

In [17], CynD D232C (enzyme) came in with a stoichiometry N of 18 subunits. Take CynD R231C (enzyme): the stoichiometry N in experiment [18] was determined as 18 subunits.

In experiment [19], CynD E235C (enzyme) returned a stoichiometry N of 18 subunits. Take CynD E229C (enzyme): the stoichiometry N in experiment [20] was found to be 18 subunits. In turn, “cyanide dihydratase from Bacillus pumilus (CynD), wild type (enzyme)” showed a stoichiometry N in experiment [21] of 18 subunits. CynD C225A (enzyme) returned a stoichiometry N in [22] of 18 subunits. CynD E222C (enzyme): the stoichiometry N in [23] was found to be 18 subunits. CynD G61C (enzyme) gave a stoichiometry N in [24] of 14 subunits. As for CynD from Pseudomonas stutzeri (enzyme), the stoichiometry N in [25] worked out at 14 subunits. As to CynD W56C (enzyme), the stoichiometry N in experiment [26] was 16 subunits. The substance CynD M223C (enzyme) returned a stoichiometry N in [27] of 18 subunits. As to CynD Y65C (enzyme), in [28], the stoichiometry N amounted to 18 subunits. For the substance CynD H62C (enzyme), in [29], the stoichiometry N came out at 18 subunits. Substance CynD F57C (enzyme) gave a stoichiometry N in experiment [30] of 14 subunits. Turning to CynD A58C (enzyme), in [31], the stoichiometry N was found to be 18 subunits.

As for CynD P55C (enzyme), in experiment [32], the stoichiometry N amounted to 18 subunits.

Consider CynD K68C (enzyme), for which, in [33], the stoichiometry N worked out at 18 subunits.
